Three molecules from patent US20090028859A1 (published 2009) can be followed below.

The target in assay [1] is T1, KDR-alkaline phosphatase (AP) soluble fusion protein (human, UniProt P35968 20-764).
T1 construct: also called KDR-AP; soluble KDR; not shown: alkaline phosphatase (AP) fusion partner
As to the kind of experiment: direct binding ELISA on immobilized KDR, detection with anti-E tag antibody-HRP, A450. Here is the method:
(§1) Two assays were carried out to determine the dual antigen binding capability of the diabody. First, a cross-linking assay was used to investigate whether the diabody is capable of binding both of its target antigens simultaneously. Briefly, the diabody or its parent scFv were first incubated in a 96-well Maxi-sorp microtiter plate (Nunc, Roskilde, Denmark) precoated with Flt-1-Fc fusion protein (1 μg/ml×[…] per well overnight at 4° C.) at room temperature (RT) for 1 h. The plate was washed three times with PBS containing 0.1% Tween (PBST), followed by incubation with KDR-AP fusion protein at RT for additional 1 h. The plate-bound KDR-AP was then quantified by the addition of AP substrate, p-nitrophenyl phosphate (Sigma, St. Louis, Mo.), followed by reading of the absorbance at 405 nm (Lu, D. et al., 1999). In the second, direct binding assay, various amounts of diabody or scFv were added to KDR or Flt-1 coated 96-well plates and incubated at RT for 1 h, after which the plates were washed 3 times with PBST. The plates were then incubated at RT for 1 h with 100 μl of an anti-E tag antibody-HRP conjugate (Amersham Pharmacia Biotech). The plates were washed, peroxidase substrate added, and the absorbance at 450 nm read following the procedure described previously (Lu, D. et al., 1999).
Background: An ELISA detects its analyte on a solid surface through an enzyme-linked reagent.

Assay [2] addresses T2, Flt-1-Fc fusion protein (human, UniProt P17948-2 27-687, limits assumed).
T2 construct: Bought from R&D Systems; also called VEGFR-1; not shown: Fc part
As to the kind of experiment: competition ELISA: inhibition of Flt-1-Fc binding to immobilized VEGF165, reference scFv 6.12.

Assay [3] has as its target T2, Flt-1-Fc fusion protein. As to the kind of experiment: BIAcore SPR, Flt-1-Fc immobilized, antibody injected. Here is the method: The binding kinetics of the diabody and its parent scFv to KDR and Flt-1 were measured using a BIAcore biosensor (Pharmacia Biosensor). KDR-AP or Flt-1-Fc fusion protein was immobilized onto a sensor chip and soluble antibodies were injected at concentrations ranging from 1.5 nM to 100 nM. Sensorgrams were obtained at each concentration and were analyzed with, BIA Evaluation 2.0, a program to determine the rate constants kon and koff. The affinity constant, Kd, was calculated from the ratio of rate constants koff/kon.
Background: SPR reads the build-up and loss of mass on a sensor chip optically.

The target of assay [4] is T2, Flt-1-Fc fusion protein. As to the kind of experiment: direct binding ELISA on immobilized Flt-1, detection with anti-E tag antibody-HRP, A450. Here is the method: as §1
The target of assay [5] is T2, Flt-1-Fc fusion protein. As to the kind of experiment: blocking ELISA: antibody mixed with a fixed amount of Flt-1-Fc, transferred to immobilized PlGF, plate-bound Flt-1-Fc detected with anti-human Fc-HRP, A450. Here is the method:
The assays followed previously described protocols (Zhu, Z. et al., 1998; Lu, D. et al., 1999). Briefly, various amounts of the diabody or scFv were mixed with a fixed amount of KDR-AP (100 ng) or Flt-1-Fc fusion protein (50 ng) and incubated at RT for 1 h. The mixture were then transferred to 96-well microtiter plates precoated with VEGF₁₆₅ (200 ng/well) or PlGF (200 ng/well) and incubated at RT for an additional 2 h, after which the plates were washed 5 times with PBS. For the KDR-AP assay, the substrate for AP was added, followed by reading of the absorbance at 405 nm to quantify the plate-bound KDR-AP. For the Flt-1-Fc assay, the plate was incubated with a mouse anti-human Fc-HRP conjugate to quantify the plate-bound Flt-1-Fc.

T2 sequence (P17948 other isoform, or with tags, fused parts or gaps limits assumed): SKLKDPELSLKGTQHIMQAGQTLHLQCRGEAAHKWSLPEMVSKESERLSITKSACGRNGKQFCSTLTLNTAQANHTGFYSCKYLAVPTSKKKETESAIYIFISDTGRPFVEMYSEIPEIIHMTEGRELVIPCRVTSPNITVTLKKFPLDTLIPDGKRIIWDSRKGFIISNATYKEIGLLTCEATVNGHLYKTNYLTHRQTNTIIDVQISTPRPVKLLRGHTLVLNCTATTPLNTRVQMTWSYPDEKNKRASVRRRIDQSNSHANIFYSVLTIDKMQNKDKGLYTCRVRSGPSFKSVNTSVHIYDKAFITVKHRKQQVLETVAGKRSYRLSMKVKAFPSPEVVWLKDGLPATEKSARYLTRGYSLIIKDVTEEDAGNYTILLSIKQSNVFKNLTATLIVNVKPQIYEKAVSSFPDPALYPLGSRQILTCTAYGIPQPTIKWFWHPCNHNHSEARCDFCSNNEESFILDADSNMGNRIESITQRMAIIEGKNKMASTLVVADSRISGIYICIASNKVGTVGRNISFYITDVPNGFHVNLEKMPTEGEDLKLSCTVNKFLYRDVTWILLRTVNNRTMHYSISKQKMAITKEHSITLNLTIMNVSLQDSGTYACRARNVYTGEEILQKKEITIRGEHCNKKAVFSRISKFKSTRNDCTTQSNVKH
T1 sequence (P35968 20-764): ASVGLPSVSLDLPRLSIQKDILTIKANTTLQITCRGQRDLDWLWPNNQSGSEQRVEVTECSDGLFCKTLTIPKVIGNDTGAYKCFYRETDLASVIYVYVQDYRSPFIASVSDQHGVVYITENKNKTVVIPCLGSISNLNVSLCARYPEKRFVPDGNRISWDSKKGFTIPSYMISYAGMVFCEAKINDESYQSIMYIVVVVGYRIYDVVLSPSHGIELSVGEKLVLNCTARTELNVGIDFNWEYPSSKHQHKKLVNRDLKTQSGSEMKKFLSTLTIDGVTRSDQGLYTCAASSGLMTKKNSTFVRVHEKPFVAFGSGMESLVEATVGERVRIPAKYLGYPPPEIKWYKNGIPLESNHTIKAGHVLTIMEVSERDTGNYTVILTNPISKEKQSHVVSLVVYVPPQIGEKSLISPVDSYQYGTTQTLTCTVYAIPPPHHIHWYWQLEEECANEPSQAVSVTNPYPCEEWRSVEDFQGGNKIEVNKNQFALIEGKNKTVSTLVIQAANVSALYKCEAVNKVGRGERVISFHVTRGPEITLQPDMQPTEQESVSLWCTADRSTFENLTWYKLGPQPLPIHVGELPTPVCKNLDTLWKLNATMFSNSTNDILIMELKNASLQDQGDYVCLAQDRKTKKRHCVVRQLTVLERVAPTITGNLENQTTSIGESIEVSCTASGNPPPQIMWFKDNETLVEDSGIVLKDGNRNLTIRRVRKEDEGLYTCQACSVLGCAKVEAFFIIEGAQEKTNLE

B1: scFv p1C11 (scFv)
scFv: QVKLQQSGAELVGSGASVKLSCTTSGFNIKDFYMHWVKQRPEQGLEWIGWIDPENGDSDYAPKFQGKATMTADSSSNTAYLQLSSLTSEDTAVYYCNAYYGDYEGYWGQGTTVTVSSGGGGSGGGGSGGGGSDIELTQSPAIMSASPGEKVTITCSASSSVSYMHWFQQKPGTSPKLWIYSTSNLASGVPARFSGSGSGTSYSLTISRMEAEDAATYYCQQRSSYPFTFGSGTKLEIK
notes: Mouse scFv from a phage library, VH and VL joined by (GGGGS)3, made soluble from pCANTAB 5E with a C-terminal E tag (detected with anti-E tag antibody); It is not known whether the entry includes the tag; also called anti-KDR scFv
The term EC50 (read off the curve) denotes the midpoint of the concentration-response curve. Lower therefore signals an effect from little substance. Consider B1, for which, in assay [1], the “EC50 (read off the curve)” value is approximately 0.3 nM.

B2: anti-KDR x anti-Flt-1 bifunctional diabody (bispecific antibody, part only; not given: anti-KDR domains, E tag, not shown: small tags and cut ends)
chain, part 1: GGGGSQVKLQQSGAELVKPGASVKLSCTASGFNIKDTYIHWVKQSPEQGLEWIGWIDPPNDNTKYDPKFQGKATITADTSSNTAYMQLRSLTSEDTAVYYCALPPFYFDYWGHGTTVTVSS
chain, part 2: DIELTQSPKFMSTSVGDRVSVTCKASQNVDTNVAWYQQKPGQSPKALIYSASYRYSGVPDRFTGSGSGTDFTLTISNVQSEDLAEYFCQQYNSFPYTFGGGTKLEIKRAGGGGS
Regarding B2, the fold less potent than the parent scFv 6.12 with Flt-1-Fc fusion protein [2] was found to be 10 fold.

B3: scFv 6.12 (scFv)
scFv: QVKLQQSGAELVKPGASVKLSCTASGFNIKDTYIHWVKQSPEQGLEWIGWIDPPNDNTKYDPKFQGKATITADTSSNTAYMQLRSLTSEDTAVYYCALPPFYFDYWGHGTTVTVSSGGGGSGGGGSGGGGSDIELTQSPKFMSTSVGDRVSVTCKASQNVDTNVAWYQQKPGQSPKALIYSASYRYSGVPDRFTGSGSGTDFTLTISNVQSEDLAEYFCQQYNSFPYTFGGGTKLEIKRA
notes: expressed soluble from pCANTAB 5E and detected with anti-E tag antibody; not shown: E tag from vector pCANTAB 5E
One may read the Kd as the constant that tells how readily two partners part at equilibrium. The koff is a measure of how fast the partners let go of each other. Usually kon stands for the rate constant with which the complex forms. In the assay with Flt-1-Fc fusion protein [3], B3 had a Kd of 9.8 nM, a koff of 0.00236 s⁻¹ and a kon of 241000 M⁻¹ s⁻¹. For the same molecule, the binding result in assay [1] is “no binding (tested: about 12 nM)”. Moreover, the “EC50 (read off the curve)” value with Flt-1-Fc fusion protein [4] was approximately 0.6 nM. In the assay with Flt-1-Fc fusion protein [5], the “IC50 (read off the curve)” value was approximately 1 nM.
